# Test results reported in patent US20230340098A1.
# pKd: −log10 of the molar value.
# Legend:
# [1] = target: human GARP/TGFβ1 complex (protein used in ELISA and Octet) (human) (UniProt Q14392); assay: Octet
# [2] = target: human GARP/latent TGFβ1 complex on cells (human) (UniProt Q14392); assay: flow cytometry on human GARP/latent TGFβ1 transfected CHO-S cells, goat anti-human IgG(H+L) FITC
# [3] = target: human GARP protein not in any GARP/TGFβ1 complex (protein used in ELISA and Octet) (human) (UniProt Q14392); assay: Octet
# Chain of human GARP protein not in any GARP/TGFβ1 complex (protein used in ELISA and Octet) (human) (Q14392 20-627 limits assumed, one chain of several): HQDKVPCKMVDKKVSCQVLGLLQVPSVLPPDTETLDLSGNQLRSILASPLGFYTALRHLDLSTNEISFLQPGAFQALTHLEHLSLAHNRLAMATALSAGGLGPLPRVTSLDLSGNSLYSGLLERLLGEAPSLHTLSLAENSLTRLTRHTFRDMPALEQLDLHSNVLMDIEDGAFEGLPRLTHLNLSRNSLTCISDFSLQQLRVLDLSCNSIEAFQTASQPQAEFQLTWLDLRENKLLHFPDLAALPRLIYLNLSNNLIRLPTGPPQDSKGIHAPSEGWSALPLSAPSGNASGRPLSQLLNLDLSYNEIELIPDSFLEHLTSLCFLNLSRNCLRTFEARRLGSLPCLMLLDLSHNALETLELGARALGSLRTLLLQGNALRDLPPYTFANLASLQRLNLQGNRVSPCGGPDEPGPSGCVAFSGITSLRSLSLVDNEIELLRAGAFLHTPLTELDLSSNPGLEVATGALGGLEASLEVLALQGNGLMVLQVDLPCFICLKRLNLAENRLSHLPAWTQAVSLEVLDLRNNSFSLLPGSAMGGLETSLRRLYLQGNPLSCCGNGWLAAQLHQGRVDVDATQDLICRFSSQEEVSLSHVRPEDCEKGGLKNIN
Substance,pKd [1],EC50 (read off the curve) [2] [mg/L],pKd [3]
"GARP ref. Ab1, an ABBV-151 analog (antibody)",9.37,0.3,–
"GARP ref. Ab2, a DS-1005a analog (antibody)",8.39,–,8.69
